Test results reported in the supplement of paper PMC10126150.
± gives the standard deviation of the averaged measurements.

Tested on: ATP
Test: switch fluorescence ratio, 500 uM ATP over buffer (Cy3 cluster intensity, sum of 5 cycles each) (fold (ratio)); higher = stronger signal-on switching upon ATP binding; sequences stand for … in TCGTCGGCAGCGTCAGATGTGTATAAGAGACAGTTTTTTTTTTTTTTTTTTTTTTTTT…TC
Details: aptamer strand: ATP DNA aptamer (quencher-CACCTGGGGGAGTATTGCGGAGGAAGG + anchor), 100 nM annealed; ATP concentration: 500 uM
How it was run: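 Between each of five buffer/ATP cycles, the flow-cell was stripped with NaOH and re-annealed. Each cycle imaged Cy3-labelled switching-strand clusters, annealed to 100 nM quencher-labelled ATP aptamer on a modified Illumina MiSeq flow-cell, first in selection buffer and then after 15 min with 500 uM ATP at 22 °C. The fluorescence ratio is summed target-cycle over summed buffer-cycle Cy3 intensity per cluster, averaged per switch-domain sequence, with clusters outside 100-1000 RFU excluded.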
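Note: ATP exposure 15 min at 22 °C before imaging.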

Sequence	switch fluorescence ratio
ATGCATTTGT	1.01 ± 0.031
ATGCCTCGGG	1.02 ± 0.032
ATGCGAAGG	0.98 ± 0.038
ATGCGAAGTG	1 ± 0.039
ATGCGACGGC	1.05 ± 0.028
ATGCGATGTA	1.04 ± 0.046
ATGCGCTTTT	1.03 ± 0.089
ATGCGGTGTG	0.978 ± 0.04
ATGCGTATTT	0.975 ± 0.039
ATGCGTCGGA	1.032 ± 0.0066
ATGCGTGAGG	1.011 ± 0.0037
ATGCTAAGTG	0.96412 ± 8.8e-05
ATGCTAATTA	1.02 ± 0.024
ATGCTATCGT	1.02 ± 0.014
ATGCTGACCT	1.01 ± 0.034
ATGCTTAGTC	0.964 ± 0.018
ATGCTTGCTG	0.9819 ± 0.0052
ATGGAAAAGG	0.9916 ± 0.0094
ATGGACAGGC	0.912 ± 0.014
ATGGACCGTT	1.02 ± 0.078
ATGGAGGCGC	0.981 ± 0.028
ATGGAGGTTA	0.9695 ± 0.0085
ATGGATATGG	1 ± 0.026
ATGGATCACC	1.019 ± 0.0027
ATGGATCGAT	0.967 ± 0.037

Sequence	switch fluorescence ratio
ATGGATGACT	1.04 ± 0.018
ATGGATTTTT	1.012 ± 0.0015
ATGGCAGACA	0.9836 ± 0.0036
ATGGCAGGGC	1.01 ± 0.016
ATGGCAGGTT	1.01 ± 0.021
ATGGCCTTAA	0.982 ± 0.028
ATGGCGGCGT	0.959 ± 0.035
ATGGCTATTC	0.979 ± 0.046
ATGGCTGGGC	1.005 ± 0.0042
ATGGCTTTTG	1.02 ± 0.037
ATGGGAACGG	0.994 ± 0.017
ATGGGAAGAC	1.06 ± 0.017
ATGGGACATT	1.03 ± 0.079
ATGGGACTTT	1.02 ± 0.037
ATGGGAGCTG	0.9831 ± 0.0037
ATGGGATTGG	0.962 ± 0.02
ATGGGATTTA	1.04 ± 0.024
ATGGGCACA	0.99899 ± 0.00092
ATGGGCACGT	0.983 ± 0.019
ATGGGCAGTG	1.02 ± 0.015
ATGGGCCCT	0.997 ± 0.031
ATGGGCCGCT	0.9835 ± 0.0087
ATGGGCGGTA	1.04 ± 0.052
ATGGGCTGCT	1.05 ± 0.062
ATGGGCTTCG	1.01 ± 0.034

Sequence	switch fluorescence ratio
ATGGGGAAAG	0.9876 ± 0.0034
ATGGGGAAGT	1.02 ± 0.02
ATGGGGAATG	0.984 ± 0.016
ATGGGGCACT	0.9789 ± 0.0042
ATGGGGCAGG	1.01 ± 0.033
ATGGGGCGGC	0.983 ± 0.026
ATGGGGGACA	0.981 ± 0.012
ATGGGGGCGT	0.994 ± 0.043
ATGGGGGTCC	1.01 ± 0.068
ATGGGGTACA	1.033 ± 0.0032
ATGGGGTAGC	0.995 ± 0.012
ATGGGGTGCG	0.9998 ± 0.0014
ATGGGGTTTG	0.974 ± 0.018
ATGGGTAATC	1.03 ± 0.026
ATGGGTCCGG	1.02 ± 0.037
ATGGGTGATA	0.9935 ± 0.0092
ATGGGTGGGG	1.01 ± 0.037
ATGGGTTGTT	1.01 ± 0.034
ATGGGTTTGG	1.01 ± 0.036
ATGGGTTTTC	0.981 ± 0.03
ATGGTAATGG	1.02 ± 0.016
ATGGTATCT	1.08 ± 0.1
ATGGTGAATG	0.978 ± 0.017
ATGGTGACGG	0.9765 ± 0.0034
ATGGTGGCAG	0.997 ± 0.054

Sequence	switch fluorescence ratio
ATGGTGGTGT	1.03 ± 0.013
ATGGTGTCGA	0.947 ± 0.029
ATGGTGTGG	1.02 ± 0.074
ATGGTTATGT	1.03 ± 0.026
ATGGTTCAAC	1.003 ± 0.01
ATGGTTCGGG	0.996 ± 0.014
ATGGTTTCGT	0.996 ± 0.037
ATGGTTTTAT	1.01 ± 0.045
ATGTAAATGA	0.9855 ± 0.0083
ATGTAACGGG	1.03 ± 0.021
ATGTAATATG	0.992 ± 0.024
ATGTACGCTT	1.052 ± 0.0038
ATGTACTGGG	1.08 ± 0.043
ATGTACTTTA	1.06 ± 0.028
ATGTAGAAGG	1 ± 0.029
ATGTAGAGGT	0.9803 ± 0.0074
ATGTAGCATG	1.036 ± 0.0041
ATGTAGCGGT	1.12 ± 0.013
ATGTATAAAT	0.9743 ± 0.009
ATGTATTGAG	1.008 ± 0.0025
ATGTATTTTC	0.986 ± 0.041
ATGTATTTTT	1 ± 0.031
ATGTCACAAA	1.03 ± 0.059
ATGTCGACAC	0.976 ± 0.02
ATGTGAGTTC	0.985 ± 0.022

Sequence	switch fluorescence ratio
ATGTGATTTG	0.985 ± 0.035
ATGTGCATAT	1.03 ± 0.02
ATGTGCTGCG	0.993 ± 0.031
ATGTGCTTC	1.005 ± 0.0078
ATGTGGCTAG	1.01 ± 0.032
ATGTGGGCGG	0.991 ± 0.028
ATGTGGGGTT	1.01 ± 0.014
ATGTGGTGGT	1 ± 0.043
ATGTGGTTGT	0.97 ± 0.019
ATGTGTAGAG	0.995 ± 0.027
ATGTGTCTG	0.987 ± 0.014
ATGTGTCTTT	0.979 ± 0.03
ATGTGTTGGT	1 ± 0.011
ATGTTAAAAG	1.01 ± 0.035
ATGTTAACG	0.999 ± 0.043
ATGTTAATCT	1.02 ± 0.035
ATGTTATAGA	0.986 ± 0.034
ATGTTCAACT	0.998 ± 0.016
ATGTTCATGG	0.99 ± 0.043
ATGTTCCTTT	0.999 ± 0.023
ATGTTCGACA	0.965 ± 0.027
ATGTTCGAGA	0.9855 ± 0.0066
ATGTTCGTCA	0.988 ± 0.044
ATGTTCTTCT	0.982 ± 0.018
ATGTTGCCGT	1.01 ± 0.13

Sequence	switch fluorescence ratio
ATGTTGCGGG	1 ± 0.041
ATGTTGGGGA	0.996 ± 0.019
ATGTTGGTTG	1.03 ± 0.04
ATGTTGTAAC	0.985 ± 0.01
ATGTTGTAAG	1.01 ± 0.039
ATGTTGTGTT	0.9626 ± 0.0029
ATGTTTAGGG	1.01 ± 0.042
ATGTTTATCA	1.01 ± 0.055
ATGTTTATGG	0.987 ± 0.012
ATGTTTCGC	0.999 ± 0.045
ATGTTTGGGA	0.967 ± 0.047
ATGTTTGGGT	1.01 ± 0.019
ATGTTTGGTG	0.97 ± 0.019
ATGTTTTTCG	0.9718 ± 0.0029
ATGTTTTTGC	1.04 ± 0.1
ATTAAAAATG	1.02 ± 0.042
ATTAAACGAG	1.01 ± 0.031
ATTAAAGGAG	1.01 ± 0.017
ATTAAATACC	1.25 ± 0.29
ATTAAATAGC	1.03 ± 0.043
ATTAAATGAG	1.01 ± 0.022
ATTAAGCCAC	1.12 ± 0.053
ATTAAGTTTG	1 ± 0.031
ATTAATCTTG	1.03 ± 0.046
ATTAATGCGG	1.07 ± 0.032

Sequence	switch fluorescence ratio
ATTAATTCCG	1.02 ± 0.0097
ATTACACTGC	1.01 ± 0.066
ATTACATTTT	1.03 ± 0.031
ATTACTCACC	1.44 ± 0.03
ATTAGACATT	1.003 ± 0.0016
ATTAGAGGGA	1.01 ± 0.029
ATTAGAGGTG	1.08 ± 0.03
ATTAGCATCG	0.981 ± 0.026
ATTAGGCAAT	1.22 ± 0.061
ATTAGGTCTG	0.941 ± 0.044
ATTAGTAACG	1.03 ± 0.0071
ATTAGTAAGG	1.01 ± 0.011
ATTAGTGATC	1.003 ± 0.0011
ATTAGTTAGC	1.01 ± 0.05
ATTAGTTATA	0.975 ± 0.029
ATTAGTTGGA	0.99 ± 0.024
ATTAGTTGGC	0.993 ± 0.027
ATTATAGGGT	1.03 ± 0.026
ATTATAGGTT	0.996 ± 0.0091
ATTATAGTCG	1.01 ± 0.036
ATTATATAAT	1.01 ± 0.046
ATTATCTAGG	0.985 ± 0.013
ATTATGAACC	1.04 ± 0.016
ATTATGAATG	0.989 ± 0.0071
ATTATGGGGT	1 ± 0.017

Sequence	switch fluorescence ratio
ATTATGTCCA	0.96991 ± 0.00059
ATTATTAGGA	1.04 ± 0.088
ATTATTATGT	0.978 ± 0.01
ATTATTTTAT	1.05 ± 0.069
ATTCAATCGA	1.018 ± 0.0031
ATTCACTTGA	1.08 ± 0.061
ATTCAGGTC	1 ± 0.038
ATTCATATTG	1.01 ± 0.042
ATTCATGGGG	0.98 ± 0.019
ATTCATTAGG	1.02 ± 0.034
ATTCATTTAG	0.996 ± 0.013
ATTCCATGGT	0.9909 ± 0.0052
ATTCCCCGGG	1.66 ± 0.68
ATTCCCGGAT	1.04 ± 0.046
ATTCCGTATA	1.25 ± 0.022
ATTCCTAGA	0.992 ± 0.021
ATTCCTGTT	1.004 ± 0.0019
ATTCGAGGGG	1.03 ± 0.061
ATTCGCAGCC	1.55 ± 0.029
ATTCGCCGGT	0.959 ± 0.0066
ATTCGCCTAG	0.987 ± 0.012
ATTCGGGCTT	0.976 ± 0.013
ATTCGGGGGC	1.11 ± 0.2
ATTCGGTCAT	1 ± 0.015
ATTCGTTGTT	0.997 ± 0.01
